Data taken from patent publication US20030220285A1.

Target: purified HLA-A2.1 molecules (human)

Substance	IC50
HBV Pol 551-A (native HBV pol 551-559) peptide […] (peptide; other documents disagree on this pair)	200 nM
HBV Core 18 (HBV core 18-27) peptide […] (peptide; other documents disagree on this pair)	3 nM
